# Test results: US20260031189A1, “METHOD AND SYSTEMS FOR PREDICTION OF HLA CLASS II-SPECIFIC EPITOPES AND CHARACTERIZATION OF CD4+ T CELLS” (BioNTech US Inc., priority 2022, published 2026)
# T1: HLA-DPA1*01:03/DPB1*04:01 soluble heterodimer (human), P20036
# T1 chain 1: not shown
# T1 chain 2: not shown
# T2: HLA-DRA*01:01/DRB1*15:01 soluble heterodimer (human)
# T2 chain 1: not shown
# T2 chain 2: not shown
# Columns and labels:
# Experiment in all cases: FP competition with FITC probe, HLA-sDM, average
# [1] = molecular target: T1, HLA-DPA1*01:03/DPB1*04:01 soluble …
# [2] = molecular target: HLA-DQA1*01:02/DQB1*06:02 soluble heterodimer (human), P01920
# [3] = molecular target: T2, HLA-DRA*01:01/DRB1*15:01 soluble …
Binder,IC50 [1] [nM],IC50 [2] [nM],IC50 [3] [nM]
CTFEYVSQPFLMDLEGK (modifications not checked) [S166-182],11,–,–
IGINITRFQTLLA (modifications not checked) [S231-243],510,> 50000,–
EKKYFAATKFEPLAARL (modifications not checked),30,–,–
GGFNFSQILPDPS (modifications not checked) [S798-810],–,1200,–
PDKVFRSSVLHSTQDL (modifications not checked) [S39-54],–,1600,–
TQQLIRAAEIRASAN (modifications not checked) [S1009-1023],–,520,–
LPDDFTGCVIAWNSNN (modifications not checked) [S425-440],–,390,–
EIDRLNEVAKNLNES (modifications not checked) [S1182-1196],–,> 50000,–
AAATAGTTVYGAKAA (modifications not checked),–,1100,–
ADAGFIKQYGDCLGDIA (modifications not checked) [S829-845],–,–,56
CSNLLLQYGSFCTQ (modifications not checked) [S749-762],–,–,270
FQTLLALHRSYLTPGDS (modifications not checked) [S238-254],–,–,140
PTESIVRFPNITNLCPF (modifications not checked) [S322-338],–,–,26
CEFQFCNDPFLGVYYHK (modifications not checked) [S131-147],58,–,–
